# Results: paper PMC5726920
# Columns and labels:
# [1] = molecular target: 10 kDa heat shock protein; test: native MS
# [2] = molecular target: triosephosphate isomerase, isoform 2, initiator methionine removed; test: native MS
# Sequence of triosephosphate isomerase, isoform 2, initiator methionine removed (enzyme) (P60174 2-249): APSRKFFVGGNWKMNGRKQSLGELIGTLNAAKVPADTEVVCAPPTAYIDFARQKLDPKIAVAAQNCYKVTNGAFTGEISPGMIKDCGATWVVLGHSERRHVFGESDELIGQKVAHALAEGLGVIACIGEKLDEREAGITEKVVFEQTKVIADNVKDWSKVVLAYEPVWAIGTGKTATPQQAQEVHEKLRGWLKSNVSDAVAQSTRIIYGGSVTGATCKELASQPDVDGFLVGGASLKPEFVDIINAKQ
stoichiometry N [1],stoichiometry N [2],Substance
7,–,10 kDa heat shock protein (natural protein)
–,2,"triosephosphate isomerase, isoform 2, initiator methionine removed (enzyme)"
